Assay results taken from US20260250318A1, “COMPOSITIONS AND METHODS FOR CROSSING THE BLOOD BRAIN BARRIER” (VOYAGER THERAPEUTICS, INC., priority 2022, published 2026).
Substitutions are numbered along the chain they refer to. Read-outs that look alike come from different tables or passages of the source.

Legend:
AAVR = target: T1, AAVR (Homo sapiens, UniProt Q8IZA0); type: cell-based; conditions: for Luciferase Activity (fold change relative to pCMV6 transfected cells) / Luciferase Activity (RLU): AAVR transfected cells; for Fold change in luciferase activity relative to the pCMV6 control cells: Table 35, Receptor AAVR; for Luciferase Activity (RLU): Table 30
T1 construct: expressed in transfected cells; host or cells: HEK 293T
T1 sequence (Q8IZA0 whole entry, looked up): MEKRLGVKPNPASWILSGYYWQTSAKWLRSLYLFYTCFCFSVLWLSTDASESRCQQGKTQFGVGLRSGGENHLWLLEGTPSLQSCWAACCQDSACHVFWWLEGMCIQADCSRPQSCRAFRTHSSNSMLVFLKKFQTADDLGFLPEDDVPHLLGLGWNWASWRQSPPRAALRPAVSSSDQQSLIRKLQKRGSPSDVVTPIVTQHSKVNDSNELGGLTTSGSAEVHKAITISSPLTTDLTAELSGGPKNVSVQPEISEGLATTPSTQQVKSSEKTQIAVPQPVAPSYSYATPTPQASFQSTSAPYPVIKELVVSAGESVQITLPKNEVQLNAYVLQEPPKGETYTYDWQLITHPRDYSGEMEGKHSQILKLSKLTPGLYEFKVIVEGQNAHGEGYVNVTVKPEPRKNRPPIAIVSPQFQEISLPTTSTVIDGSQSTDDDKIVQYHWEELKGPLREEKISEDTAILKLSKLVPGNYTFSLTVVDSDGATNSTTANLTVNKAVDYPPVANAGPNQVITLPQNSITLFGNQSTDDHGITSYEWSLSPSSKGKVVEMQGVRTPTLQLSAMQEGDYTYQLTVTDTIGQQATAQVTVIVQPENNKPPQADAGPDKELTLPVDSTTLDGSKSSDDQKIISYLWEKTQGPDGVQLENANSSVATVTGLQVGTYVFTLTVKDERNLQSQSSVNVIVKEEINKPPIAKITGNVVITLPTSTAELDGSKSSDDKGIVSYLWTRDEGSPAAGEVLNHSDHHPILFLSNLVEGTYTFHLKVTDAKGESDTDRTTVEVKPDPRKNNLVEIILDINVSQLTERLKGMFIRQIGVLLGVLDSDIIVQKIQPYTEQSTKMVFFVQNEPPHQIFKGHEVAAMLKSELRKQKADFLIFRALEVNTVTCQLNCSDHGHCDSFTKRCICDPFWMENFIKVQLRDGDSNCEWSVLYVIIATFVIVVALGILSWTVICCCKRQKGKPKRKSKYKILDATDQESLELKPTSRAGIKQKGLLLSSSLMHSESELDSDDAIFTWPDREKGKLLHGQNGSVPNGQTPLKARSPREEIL
Description: Briefly, a transduction assay was performed in that HEK 293T cells were transfected via calcium phosphate transfection with a plasmid expressing ALPL, an AAVR positive control, or a pCMV6 negative control (250 ng or 500 ng of plasmid). AAVR is a universal AAV entry factor involved in AAV transduction. […] At 24-hours post-transduction, GFP expression and luciferase activity were measured to quantify and observe AAV cellular transduction. […] The TTM-002, TTM-006, TTM-018, and TTM-019 capsid variants all comprised the SPH motif immediately subsequent to position 455, numbered relative to SEQ ID NO: 138 and a positive residue in one of the next three residues subsequent to the SPH motif.

ALPL = target: T2, ALPL (Homo sapiens, UniProt P05186); assay: SPR (Biacore 8K) binding of peptide ligands to ALPL; conditions: 50 μM peptides or 250 nM capsids flowed over
T2 sequence (P05186 18-501): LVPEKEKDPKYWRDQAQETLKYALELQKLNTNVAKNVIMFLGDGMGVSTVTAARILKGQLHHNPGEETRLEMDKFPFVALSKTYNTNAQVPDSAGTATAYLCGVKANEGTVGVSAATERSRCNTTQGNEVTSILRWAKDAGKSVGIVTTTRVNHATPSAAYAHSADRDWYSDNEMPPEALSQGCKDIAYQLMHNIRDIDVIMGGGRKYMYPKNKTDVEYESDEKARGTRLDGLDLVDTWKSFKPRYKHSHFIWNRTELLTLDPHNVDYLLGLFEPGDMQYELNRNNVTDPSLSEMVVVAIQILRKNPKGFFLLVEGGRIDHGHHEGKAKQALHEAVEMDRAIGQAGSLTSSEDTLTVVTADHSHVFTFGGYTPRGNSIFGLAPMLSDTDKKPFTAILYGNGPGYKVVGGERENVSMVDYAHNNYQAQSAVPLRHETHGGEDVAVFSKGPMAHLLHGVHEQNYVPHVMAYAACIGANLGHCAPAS
Description: Binding and interaction between the peptides and the ALPL receptor were measured by Surface Plasmon Resonance (SPR) on a Biacore 8K instrument. The biotinylated peptides in Table 37 were captured on the streptavidin biosensor chip and 1000 nM of ALPL and buffer were passed over the peptides to monitor binding. […] His-tagged ALPL was then captured on the chip pre-immobilized with anti-His antibody, and 50 μM of the peptides in Table 37 or 250 nM of the AAV9 control capsid, the TTM-001 capsid variant (SEQ ID NO: 981), or the TTM-002 capsid variant (SEQ ID NO: 982) were flowed over the ALPL to check for binding. […] The longer peptides derived from TTM-002,
were also flowed over the his-tagged ALPL captured on the CM5 sensor chip pre-immobilized with anti-His antibody.
Binding and interaction between the phosho-peptides and the ALPL receptor were also measured by SPR. The biotinylated and phosphorylated peptides in Table 38 were captured on the streptavidin biosensor chip along with their non-phosphorylated counterparts, […] (SEQ ID NO: 4500) and […] (SEQ ID NO: 4503). ALPL and buffer were passed over the peptides to monitor binding. The concentration of ALPL used ranged from 0 to 500 nM (0 nM, 125 nM, 250 nM, and 500 nM).
In a second experiment, his-tagged ALPL was first captured on a CM5 sensor chip pre-immobilized with anti-His antibody. The phosphorylated peptides in Table 38 and their non-phosphorylated counterparts, […] (SEQ ID NO: 4500) and […] (SEQ ID NO: 4503) and buffer were flowed over the ALPL protein to monitor binding.

[1] = test system: N-linked galactose on HeLa cells; assay: Transduction of HeLa cells after neuraminidase treatment (Luc2 activity); type: cell-based, human
Description: Primary glycan receptors have been identified for various AAV serotypes, including AAV9 which binds N-linked galactose. In order to investigate the ability of TTM-001 and TTM-002 AAV9 variants to retain this natural glycan binding, HeLa cells were treated with increasing concentrations of Neuraminidase ([…]), which cleaves N-sialic acid and exposes N-galactose. The treated cells were then transduced with AAV particles comprising the TTM-001 capsid variant (AAV_TTM-001), the TTM-002 capsid variant (AAV_TTM-002), or an AAV9 control (AAV_AAV9cntl), transduction was measured by quantification of Luc2 activity (RLU), and data was normalized relative to the no neuraminidase control.

AAV9: wild-type AAV9 control capsid [reference compound]
Luciferase Activity (fold change relative to pCMV6 transfected cells) (AAVR; Table 27): 4.3 fold
Luciferase Activity (fold change relative to pCMV6 transfected cells) (AAVR; Table 28): 14 fold
Fold change in luciferase activity relative to the pCMV6 control cells (AAVR): 4.9 fold
binding to ALPL by SPR, His-tagged ALPL captured on chip (ALPL): No detectable binding
fold change in Luc2 activity (RLU) relative to the no neuraminidase control ([1]; Neuraminidase 5 mU/mL): 2.7 fold
fold change in Luc2 activity (RLU) relative to the no neuraminidase control ([1]; Neuraminidase 50 mU/mL): 6.2 fold
fold change in Luc2 activity (RLU) relative to the no neuraminidase control ([1]; Neuraminidase 500 mU/mL): 11.1 fold

B1: TTM-001: AAV9 capsid variant comprising SPHSKA (SEQ ID NO: 941) in loop IV (protein)
chain 1: MAADGYLPDWLEDNLSEGIREWWALKPGAPQPKANQQHQDNARGLVLPGYKYLGPGNGLDKGEPVNAADAAALEHDKAYDQQLKAGDNPYLKYNHADAEFQERLKEDTSFGGNLGRAVFQAKKRLLEPLGLVEEAAKTAPGKKRPVEQSPQEPDSSAGIGKSGAQPAKKRLNFGQTGDTESVPDPQPIGEPPAAPSGVGSLTMASGGGAPVADNNEGADGVGSSSGNWHCDSQWLGDRVITTSTRTWALPTYNNHLYKQISNSTSGGSSNDNAYFGYSTPWGYFDFNRFHCHFSPRDWQRLINNNWGFRPKRLNFKLFNIQVKEVTDNNGVKTIANNLTSTVQVFTDSDYQLPYVLGSAHEGCLPPFPADVFMIPQYGYLTLNDGSQAVGRSSFYCLEYFPSQMLRTGNNFQFSYEFENVPFHSSYAHSQSLDRLMNPLIDQYLYYLSKTINGSGSPHSKAQNQQTLKFSVAGPSNMAVQGRNYIPGPSYRQQRVSTTVTQNNNSEFAWPGASSWALNGRNSLMNPGPAMASHKEGEDRFFPLSGSLIFGKQGTGRDNVDADKVMITNEEEIKTTNPVATESYGQVATNHQSAQAQAQTGWVQNQGILPGMVWQDRDVYLQGPIWAKIPHTDGNFHPSPLMGGFGMKHPPPQILIKNTPVPADPPTAFNKDKLNSFITQYSTGQVSVEIEWELQKENSKRWNPEIQYTSNYYKSNNVEFAVNTEGVYSEPRPIGTRYLTRNL
chain 2: GSGSPHSKAQNQQT
Luciferase Activity (fold change relative to pCMV6 transfected cells) (AAVR; Table 27): 2.4 fold
Luciferase Activity (RLU) (AAVR): 13,981 RLU
binding to ALPL by SPR, His-tagged ALPL captured on chip (ALPL): Binding to ALPL was detected
fold change in Luc2 activity (RLU) relative to the no neuraminidase control ([1]; Neuraminidase 5 mU/mL): 5.2 fold
fold change in Luc2 activity (RLU) relative to the no neuraminidase control ([1]; Neuraminidase 50 mU/mL): 6.7 fold
fold change in Luc2 activity (RLU) relative to the no neuraminidase control ([1]; Neuraminidase 500 mU/mL): 8.2 fold

B2: TTM-002: AAV9 capsid variant comprising HDSPHK (SEQ ID NO: 2) in loop IV (protein)
chain 1: B1 chain 1 with S454H, G455D, S459K, K460S, A461G
chain 2: GHDSPHKSGQNQQT
Luciferase Activity (fold change relative to pCMV6 transfected cells) (AAVR; Table 27): 4.1 fold
Luciferase Activity (RLU) (AAVR): 11,261 RLU
Fold change in luciferase activity relative to the pCMV6 control cells (AAVR): 7.3 fold
transduction in cells expressing the AAVR control (AAVR; compared with ALPL expression): did not result in the same increase in transduction
binding to ALPL by SPR, His-tagged ALPL captured on chip (ALPL): Binding to ALPL was detected
fold change in Luc2 activity (RLU) relative to the no neuraminidase control ([1]; Neuraminidase 5 mU/mL): 9.6 fold
fold change in Luc2 activity (RLU) relative to the no neuraminidase control ([1]; Neuraminidase 50 mU/mL): 12.5 fold
fold change in Luc2 activity (RLU) relative to the no neuraminidase control ([1]; Neuraminidase 500 mU/mL): 13.9 fold
